{"source": "the Human Domainome abundance scans (Beltran et al. 2025)", "parents": {"B1": {"name": "PMS1 protein homolog 1, residues 572 to 637; numbered along this chain, P54277 (parent)", "chain": "KKPMSASALFVQDHRPQFLIENPKTSLEDATLQIEELWKTLSEEEKLKYEEKATKDLERYNSQMKR"}}, "note": "± gives the uncertainty stated by the source.", "data": [{"variants_of": "B1", "assay": "abundance fitness (aPCA) (normalised: wild type 0, dead -1); higher = more abundant; growth selection in yeast, the domain comes from the species named", "details": "Homo sapiens", "values": [{"variant": "KSPMSASALFVQDHRPQFLIENPKTSLEDATLQIEELWKTLSEEEKLKYEEKATKDLERYNSQMKR", "note": "[K2S]", "abundance fitness": "-0.201 ± 0.098"}, {"variant": "KIPMSASALFVQDHRPQFLIENPKTSLEDATLQIEELWKTLSEEEKLKYEEKATKDLERYNSQMKR", "note": "[K2I]", "abundance fitness": "-0.475 ± 0.42"}, {"variant": "KKPMSASALFVQDHRPQFLIENPKTSLEDTTLQIEELWKTLSEEEKLKYEEKATKDLERYNSQMKR", "note": "[A30T]", "abundance fitness": "-0.668 ± 0.25"}, {"variant": "KKPMSASALFVQDHRPQFLIENPKTSLEDATLQIEELWKTLSEEENLKYEEKATKDLERYNSQMKR", "note": "[K46N]", "abundance fitness": "-1.37 ± 0.27"}, {"variant": "KKPMSASALFVQDHRPQFLIENPKTSLEDATLQIEELWKTLSEEEHLKYEEKATKDLERYNSQMKR", "note": "[K46H]", "abundance fitness": "-0.353 ± 0.08"}, {"variant": "KKPMSASAVFVQDHRPQFLIENPKTSLEDATLQIEELWKTLSEEEKLKYEEKATKDLERYNSQMKR", "note": "[L9V]", "abundance fitness": "-0.2 ± 0.17"}, {"variant": "KKPMSASAAFVQDHRPQFLIENPKTSLEDATLQIEELWKTLSEEEKLKYEEKATKDLERYNSQMKR", "note": "[L9A]", "abundance fitness": "-0.61 ± 0.23"}, {"variant": "KKPMSASAMFVQDHRPQFLIENPKTSLEDATLQIEELWKTLSEEEKLKYEEKATKDLERYNSQMKR", "note": "[L9M]", "abundance fitness": "-0.167 ± 0.47"}, {"variant": "KKPMSASALFVQDHRSQFLIENPKTSLEDATLQIEELWKTLSEEEKLKYEEKATKDLERYNSQMKR", "note": "[P16S]", "abundance fitness": "-0.214 ± 0.16"}, {"variant": "KKPMSASALFVQDHRPQFLIENPKTSLEDATLQIEELWKTLSEEEKLKYEEKATKDLERYNSQMYR", "note": "[K65Y]", "abundance fitness": "-0.207 ± 0.19"}, {"variant": "KKPMSASALFVQDHRPQFLIENPKTSLEDATLQIEELWKTLSEEEKLKYEEKATKDLERYNSQMIR", "note": "[K65I]", "abundance fitness": "-0.25 ± 0.2"}, {"variant": "KKPMSASALFVQDHRPQFLIENPKTSLEDATLQIEELWKTLSEEEKLKYEEKATKDLERYNSQMLR", "note": "[K65L]", "abundance fitness": "0.029 ± 0.081"}, {"variant": "KKPMSASALFVQDHRPQFLIENPKTSLEDATLQIEELWKTLSEEEKLKYEEKATKDLERYNSQMNR", "note": "[K65N]", "abundance fitness": "-0.163 ± 0.12"}, {"variant": "KKPMSASALFVQDHRPQFLIENPKTSLEDATLQIEELWKTLSEEEKLKYEEKATKDLERYNSQMMR", "note": "[K65M]", "abundance fitness": "-0.237 ± 0.12"}, {"variant": "KKPMSASALFVQDHRPQFLIENPKTSLEDATLQIEELWKTLSEIEKLKYEEKATKDLERYNSQMKR", "note": "[E44I]", "abundance fitness": "-0.345 ± 0.086"}, {"variant": "KKPMSASALFVQDHRPQFLIENPKTSLEDATLQIEELWKTLSEVEKLKYEEKATKDLERYNSQMKR", "note": "[E44V]", "abundance fitness": "-0.113 ± 0.057"}, {"variant": "KKPMSASALFVQDHRPQFLIENPKTSLEDATLQIEELWKTLSENEKLKYEEKATKDLERYNSQMKR", "note": "[E44N]", "abundance fitness": "-0.385 ± 0.14"}, {"variant": "KKPMSASALFVQDHRPQFLIENPKTSLEDATLQIEELWKTLSEMEKLKYEEKATKDLERYNSQMKR", "note": "[E44M]", "abundance fitness": "-0.408 ± 0.089"}, {"variant": "KKPMSASALFVQDHRPQFLIENPKTSLEDATLVIEELWKTLSEEEKLKYEEKATKDLERYNSQMKR", "note": "[Q33V]", "abundance fitness": "-0.329 ± 0.17"}, {"variant": "KKPMSASALFVQDHRPQFLIENPKTSLEDATLKIEELWKTLSEEEKLKYEEKATKDLERYNSQMKR", "note": "[Q33K]", "abundance fitness": "-0.06 ± 0.2"}, {"variant": "KKPMSASALFVQDHRPQFLIENPKTSLEDATLQIEELWKTLSEEEKLKYEEKACKDLERYNSQMKR", "note": "[T54C]", "abundance fitness": "-0.164 ± 0.088"}, {"variant": "KKPMSASALFVQDHRPQFLIENPKTSLEDATLQIEELWKTLSEEEKLKYEEKAAKDLERYNSQMKR", "note": "[T54A]", "abundance fitness": "0.035 ± 0.071"}, {"variant": "KKPMSASALFVQDHRPQFLIENPKTSLEDATLQIEELTKTLSEEEKLKYEEKATKDLERYNSQMKR", "note": "[W38T]", "abundance fitness": "-0.343 ± 0.19"}, {"variant": "KKPMSASALFVQDHRPQFLIENPKTSLEDATLQIEELAKTLSEEEKLKYEEKATKDLERYNSQMKR", "note": "[W38A]", "abundance fitness": "-0.369 ± 0.22"}, {"variant": "KKPMSASALFVQDHRPQFLIENPKTSLEDATLQIEELHKTLSEEEKLKYEEKATKDLERYNSQMKR", "note": "[W38H]", "abundance fitness": "0.034 ± 0.26"}, {"variant": "KKPMSASALFVQDHRPQFLIENPKTSLEDATLQIEELEKTLSEEEKLKYEEKATKDLERYNSQMKR", "note": "[W38E]", "abundance fitness": "-0.135 ± 0.13"}, {"variant": "KKPMSASALFVQDHRPQFLIENPKTSLEDATLQIEEEWKTLSEEEKLKYEEKATKDLERYNSQMKR", "note": "[L37E]", "abundance fitness": "-0.359 ± 0.2"}, {"variant": "KKPMSASALFVQDHRPQFLIENPKTSLEDATLQIEEYWKTLSEEEKLKYEEKATKDLERYNSQMKR", "note": "[L37Y]", "abundance fitness": "-0.459 ± 0.35"}, {"variant": "KKPMSASALFVQDHMPQFLIENPKTSLEDATLQIEELWKTLSEEEKLKYEEKATKDLERYNSQMKR", "note": "[R15M]", "abundance fitness": "0.07 ± 0.075"}, {"variant": "KKPMSASALFVQDHVPQFLIENPKTSLEDATLQIEELWKTLSEEEKLKYEEKATKDLERYNSQMKR", "note": "[R15V]", "abundance fitness": "0.033 ± 0.086"}, {"variant": "KKPMSASALFVQDHRPQFLIENPKTSLEDATLQIEELWKTLSEEEKLKYEEKATKDLEAYNSQMKR", "note": "[R59A]", "abundance fitness": "0.05 ± 0.082"}, {"variant": "KKPMSASALFVQDHRPQFLIENPKTSLEDATLQIEELWKTLSEEEKLKYEEKATKDLEFYNSQMKR", "note": "[R59F]", "abundance fitness": "-0.079 ± 0.07"}, {"variant": "KKPMSASALFVQDHRPQFLIENPKKSLEDATLQIEELWKTLSEEEKLKYEEKATKDLERYNSQMKR", "note": "[T25K]", "abundance fitness": "-0.302 ± 0.15"}, {"variant": "KKPMSASALFVQDHRPQFLIENPKTSLEDATLQIEELWKTLSEEEKLKYEEKATKDLERFNSQMKR", "note": "[Y60F]", "abundance fitness": "0.063 ± 0.18"}, {"variant": "KKPFSASALFVQDHRPQFLIENPKTSLEDATLQIEELWKTLSEEEKLKYEEKATKDLERYNSQMKR", "note": "[M4F]", "abundance fitness": "-0.12 ± 0.18"}, {"variant": "KKPVSASALFVQDHRPQFLIENPKTSLEDATLQIEELWKTLSEEEKLKYEEKATKDLERYNSQMKR", "note": "[M4V]", "abundance fitness": "-0.091 ± 0.065"}, {"variant": "KKPMSASALFVQDHRPQFLIENPKTSLEDATLQIEELWETLSEEEKLKYEEKATKDLERYNSQMKR", "note": "[K39E]", "abundance fitness": "-0.095 ± 0.11"}, {"variant": "KKPMSASALFVQDHRPQFLIENPKTSLEDATLQIEELWITLSEEEKLKYEEKATKDLERYNSQMKR", "note": "[K39I]", "abundance fitness": "-0.535 ± 0.46"}, {"variant": "KKPMSASALFVQDHRPQFLIENPKTSLEDATLQIEELWKTLSEEEKHKYEEKATKDLERYNSQMKR", "note": "[L47H]", "abundance fitness": "0.032 ± 0.15"}, {"variant": "KKPMSASALFVQDHRPQFLIENPKTSLEDATLQIEELWKTLSEEEKTKYEEKATKDLERYNSQMKR", "note": "[L47T]", "abundance fitness": "0.005 ± 0.16"}, {"variant": "KKPMSASALFVQDHRPQFLIENPKTSLEDATLQIEELWKNLSEEEKLKYEEKATKDLERYNSQMKR", "note": "[T40N]", "abundance fitness": "-0.086 ± 0.12"}]}]}
